Assays:
Experiment in all cases: SEC
[1] = target: Atlas GC GPL binding pocket mutant R86A (Ancylostoma ceylanicum (endogenous retrovirus Atlas virus))
[2] = target: Atlas GC fusion loop mutant F136A/F137A (Ancylostoma ceylanicum (endogenous retrovirus Atlas virus))
SEC = target: the molecule itself

Atlas GC GPL binding pocket mutant R86A (domain or fragment)
stoichiometry N [1]: 3

Atlas GC fusion loop mutant F136A/F137A (domain or fragment)
stoichiometry N [2]: 3

B1: Atlas virus GC ectodomain fragment (polyprotein residues 2330-2772) (domain or fragment)
chain: CSEVISVTSTEEVCTIQENKETCTFNHATTITLQPLQQQTCLTLNDPEKRPMGMLTVKPDGIKFRCNKKIEFFTRDHQIVSESVHRCHRAGSCHSDECHHVKDTDALPEFSSEANSRPGYTSCSSSCGCITCDGCFFCEPSCLFHRLYAIPTTPTIYSIFYCPSWELEVDAEISLQREDETTTSTIRLLPGRTSTWNNIRFSLIGTIVPQLPILSSAFVTNGRQTSIVKPAYAGQLQSNSVGQLQCPNLEAAKQFECHFSRNLCTCTNALHKVSCTCYDGSVEDHMEALPLPQTSKNFLVFEKDRNIYAKTHVGSALQLHIVAQDLKITTVKHTSHCQVEASDLSGCYSCTSGASLTLSCKSDNGEVLANMKCNEQTHVIRCTESGFINNILLMFDTSEVAADCTAACPGGIVNFTIKGLLAFVNERIISQSYSATDVERNIK
modifications: N-linked glycan at Asn414 (GC numbering)
stoichiometry N (SEC): 3

— article doi:10.1101/2021.11.23.469668 (bioRxiv, 2021)
